Test results published in patent publication US20210024639A1 (AGOMAB THERAPEUTICS, published 2021).

Assays:
[1] = target: T1, native human MET on living human cells (human, UniProt P08581 25-1390); experiment: cell-based or functional assay
[2] = target: T2, native mouse MET on living mouse cells (mouse, UniProt P16056 25-1379); experiment: cell-based or functional assay
[3] = target: T1, native human MET on living human cells; experiment: cell-based or functional assay; remark: listed apart in the source
[4] = target: T2, native mouse MET on living mouse cells; experiment: cell-based or functional assay; remark: listed apart in the source
[5] = target: T1, native human MET on living human cells; experiment: flow cytometry, A549 cells
Protocol: (§1) We also analysed whether chimeric anti-MET antibodies bound to native human and mouse MET in living cells. […] Antibody binding to cells was analysed by flow cytometry using phycoerythrin-conjugated anti-human IgG1 antibodies (eBioscience) and a CyAn ADP analyser (Beckman Coulter). As a positive control for human MET binding, we used a commercial mouse anti-human MET antibody (R&D Systems) and phycoerythrin-conjugated anti-mouse IgG1 antibodies (eBioscience). As a positive control for mouse MET binding we used a commercial goat anti-mouse MET antibody (R&D Systems) and phycoerythrin-conjugated anti-goat IgG1 antibodies (eBioscience). […] Consistent with the data obtained in ELISA, maximal binding (EMAX) varied depending on antibody, but was similar in human and mouse cells.

[6] = target: T2, native mouse MET on living mouse cells; experiment: flow cytometry, MLP29 cells
Protocol: as §1

[7] = target: T3, human MET-Fc chimeric protein (R&D Systems) (human, UniProt P08581 25-932); experiment: competition ELISA, hMET-Fc in solid phase, competitor 0.3 nM biotinylated hHGF
T3 construct: extracellular domain; bought (R&D Systems); also called hMET; not shown: Fc portion of human IgG1
Protocol: (§2) To investigate along this line, we tested the competition between mAbs and HGF by ELISA. Recombinant human and mouse HGF (R&D Systems) were biotinylated at the N-terminus using NHS-LC-biotin (Thermo Scientific). MET-Fc protein, either human or mouse (R&D Systems), was immobilized in solid phase and then exposed to 0.3 nM biotinylated HGF, either human or mouse, in the presence of increasing concentrations of antibodies (0-120 nM).
(§3) A MET-Fc chimeric protein (either human or mouse) was immobilized in solid phase and exposed to a fixed concentration of biotinylated HGF (either human or mouse), in the presence of increasing concentrations of antibodies. […] Antibody-HGF competition is expressed as IC₅₀ (the concentration that achieves 50% competition) and IMAX (the maximum % competition reached at saturation).

[8] = target: T4, mouse MET-Fc chimeric protein (R&D Systems) (mouse, UniProt P16056 25-929, limits assumed); experiment: competition ELISA, mMET-Fc in solid phase, competitor 0.3 nM biotinylated mHGF
T4 construct: bought (R&D Systems); also called mMET; not shown: Fc
Protocol: as §2, §3

[9] = target: T5, human MET extracellular domain (ECD) (human, UniProt P08581 25-932); experiment: ELISA, periplasmic Fab on MET ECD
T5 construct: range 1-932; recombinant ECD; also called hMET; human MET ECD
Protocol: Fab-expressing phages from the libraries described above were produced according to standard phage display protocols. For selection, phages were first adsorbed to immobilized recombinant human MET ECD, washed, and then eluted using trypsin. After two cycles of selection with human MET ECD, two other cycles were performed in the same fashion using mouse MET ECD. In parallel, we also selected phages alternating a human MET ECD cycle with a mouse MET ECD cycle, for a total of four cycles. Phages selected by the two approaches were pooled together and then used to infect TG1 E. coli. Individual colonies were isolated and secretion of Fabs was induced using IPTG (Fermentas). The Fab-containing periplasmic fraction of bacteria was collected and tested for its ability to bind human and mouse MET ECD by Surface Plasmon Resonance (SPR). Human or mouse MET ECD was immobilized on a CM-5 chip using amine coupling in sodium acetate buffer (GE Healthcare). The Fab-containing periplasmic extracts were loaded into a BIACORE 3000 apparatus (GE Healthcare) with a flow rate of 30 μl/min. The Fab off-rates (koff) were measured over a two minute period. Binding of Fabs to human and mouse MET was further characterized by ELISA using MET ECD in solid phase and periplasmic crude extract in solution.
TABLE 7 Fabs binding to both human MET (hMET) and mouse MET (mMET). Fabs are grouped in families based on their VH CDR3 sequence. Binding of Fabs to human and mouse MET ECD was determined by Surface Plasmon Resonance (SPR) and by ELISA. SPR values represent the koff (s⁻¹). ELISA values represent the Optical Density (OD) at 450 nm (AU, arbitrary units). Both SPR and ELISA were performed using crude periplasmic extracts. Fab concentration in the extract was not determined. Values are the mean of three independent measurements.

T1 sequence (P08581 25-1390): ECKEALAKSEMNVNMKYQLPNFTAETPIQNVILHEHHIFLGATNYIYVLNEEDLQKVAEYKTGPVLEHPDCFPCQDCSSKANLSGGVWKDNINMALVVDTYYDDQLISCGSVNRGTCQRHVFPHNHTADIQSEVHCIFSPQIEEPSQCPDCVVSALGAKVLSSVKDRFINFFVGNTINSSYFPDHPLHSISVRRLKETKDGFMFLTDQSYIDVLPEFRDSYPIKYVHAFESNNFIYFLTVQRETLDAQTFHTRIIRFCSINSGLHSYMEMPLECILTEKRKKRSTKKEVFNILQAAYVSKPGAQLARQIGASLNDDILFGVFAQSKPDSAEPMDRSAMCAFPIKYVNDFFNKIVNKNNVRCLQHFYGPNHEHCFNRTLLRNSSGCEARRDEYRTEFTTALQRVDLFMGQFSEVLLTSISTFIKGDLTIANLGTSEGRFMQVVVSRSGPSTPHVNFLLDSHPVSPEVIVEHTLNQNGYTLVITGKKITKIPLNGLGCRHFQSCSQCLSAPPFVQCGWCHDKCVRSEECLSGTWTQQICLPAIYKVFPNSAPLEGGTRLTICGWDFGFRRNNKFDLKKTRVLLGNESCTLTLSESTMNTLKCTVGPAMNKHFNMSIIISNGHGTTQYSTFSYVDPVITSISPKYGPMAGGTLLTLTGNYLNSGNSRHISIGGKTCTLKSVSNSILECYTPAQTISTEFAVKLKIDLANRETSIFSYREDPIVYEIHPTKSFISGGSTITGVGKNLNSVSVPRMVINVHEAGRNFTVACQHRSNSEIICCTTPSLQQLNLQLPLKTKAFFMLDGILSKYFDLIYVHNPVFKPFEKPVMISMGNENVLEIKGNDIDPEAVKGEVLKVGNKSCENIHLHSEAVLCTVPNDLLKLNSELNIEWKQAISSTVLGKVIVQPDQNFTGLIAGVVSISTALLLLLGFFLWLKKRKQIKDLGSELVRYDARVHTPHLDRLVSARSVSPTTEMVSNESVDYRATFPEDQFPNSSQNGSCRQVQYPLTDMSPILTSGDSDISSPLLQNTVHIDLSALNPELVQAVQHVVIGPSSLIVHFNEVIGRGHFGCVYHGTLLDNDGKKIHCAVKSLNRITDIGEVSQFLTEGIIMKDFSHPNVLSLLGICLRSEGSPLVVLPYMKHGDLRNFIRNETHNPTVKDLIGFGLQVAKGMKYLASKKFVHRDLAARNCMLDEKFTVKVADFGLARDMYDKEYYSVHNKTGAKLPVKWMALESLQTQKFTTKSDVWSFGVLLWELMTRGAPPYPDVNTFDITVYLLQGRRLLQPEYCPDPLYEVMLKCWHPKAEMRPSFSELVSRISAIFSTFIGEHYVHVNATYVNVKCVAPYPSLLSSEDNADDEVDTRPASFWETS
T3 sequence (P08581 25-932, change not shown): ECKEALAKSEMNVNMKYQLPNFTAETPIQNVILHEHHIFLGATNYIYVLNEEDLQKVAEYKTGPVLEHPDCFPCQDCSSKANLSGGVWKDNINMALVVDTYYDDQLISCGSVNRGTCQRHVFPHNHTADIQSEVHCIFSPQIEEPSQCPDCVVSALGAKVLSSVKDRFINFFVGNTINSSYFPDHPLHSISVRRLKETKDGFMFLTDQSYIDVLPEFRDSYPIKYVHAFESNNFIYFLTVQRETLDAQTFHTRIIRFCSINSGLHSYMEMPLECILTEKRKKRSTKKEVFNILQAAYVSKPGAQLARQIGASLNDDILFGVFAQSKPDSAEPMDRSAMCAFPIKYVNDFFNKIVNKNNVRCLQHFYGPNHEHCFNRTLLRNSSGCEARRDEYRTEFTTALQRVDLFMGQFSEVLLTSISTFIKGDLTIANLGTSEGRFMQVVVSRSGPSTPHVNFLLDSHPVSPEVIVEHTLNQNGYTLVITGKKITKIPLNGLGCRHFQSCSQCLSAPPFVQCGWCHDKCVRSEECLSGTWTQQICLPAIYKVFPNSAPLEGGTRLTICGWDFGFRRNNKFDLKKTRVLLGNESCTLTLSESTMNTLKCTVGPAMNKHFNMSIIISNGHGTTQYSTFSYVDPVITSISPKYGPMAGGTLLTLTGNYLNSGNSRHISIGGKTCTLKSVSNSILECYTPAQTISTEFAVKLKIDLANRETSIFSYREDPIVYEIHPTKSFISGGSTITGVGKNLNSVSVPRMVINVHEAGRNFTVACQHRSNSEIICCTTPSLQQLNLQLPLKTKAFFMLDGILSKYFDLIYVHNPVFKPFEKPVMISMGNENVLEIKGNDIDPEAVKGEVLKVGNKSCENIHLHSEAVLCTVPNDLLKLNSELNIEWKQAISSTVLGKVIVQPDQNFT
T5 sequence (P08581 25-932 limits assumed, form in doubt): as the sequence (P08581 25-932, change not shown) above

cell scattering score, HPAF-II, 0.001 nM [1] [score 0-4]	cell scattering score, HPAF-II, 0.004 nM [1] [score 0-4]	cell scattering score, HPAF-II, 0.012 nM [1] [score 0-4]	cell scattering score, HPAF-II, 0.037 nM [1] [score 0-4]	cell scattering score, HPAF-II, 0.111 nM [1] [score 0-4]	cell scattering score, HPAF-II, 0.333 nM [1] [score 0-4]	cell scattering score, HPAF-II, 1.000 nM [1] [score 0-4]	cell scattering score, HPAF-II, 3.000 nM [1] [score 0-4]	cell scattering score, HPAF-II, 9.000 nM [1] [score 0-4]	cell scattering score, MLP29, 0.001 nM [2] [score 0-4]	cell scattering score, MLP29, 0.004 nM [2] [score 0-4]	cell scattering score, MLP29, 0.012 nM [2] [score 0-4]	cell scattering score, MLP29, 0.037 nM [2] [score 0-4]	cell scattering score, MLP29, 0.111 nM [2] [score 0-4]	cell scattering score, MLP29, 0.333 nM [2] [score 0-4]	cell scattering score, MLP29, 1.000 nM [2] [score 0-4]	cell scattering score, MLP29, 3.000 nM [2] [score 0-4]	cell scattering score, MLP29, 9.000 nM [2] [score 0-4]	Binder	protection from staurosporine, viability EC50, MLP29 [4] [nM]	protection from staurosporine, viability EMAX, MLP29 [4] [%]	also measured
0	0	0	0	0	0	1	2	3	0	0	0	0	0	0	1	2	3	chimeric llama-human IgG1 mAb 76G7 (antibody, V domains shown) VH: QVQLVESGGNLVQPGGSLRLSCAASGFTFSNYYMSWVRQAPGKGLEWVSDIYSDGSTTWYSDSVKGRFTISRDNAKNTLSLQMNSLKSEDTAVYYCARVKIYPGGYDAWGQGTQVTVSS VL: QAGLTQPPSVSGSPGKTVTISCAGNSSDVGYGNYVSWYQQFPGMAPKLLIYLVNKRASGITDRFSGSKSGNTASLTISGLQSEDEADYYCASYTGSNNIVFGGGTHLTVL	30.1	50.2	protection from staurosporine, viability EC50, MCF10A [3]: 25.4 nM; protection from staurosporine, viability EMAX, MCF10A [3]: 51.9%; EMAX (% relative to control) [5]: 121%; EMAX (% relative to control) [6]: 115%; IMAX (maximum % competition) [7]: 69.4%; IMAX (maximum % competition) [8]: 62.5%
–	–	–	–	–	–	–	–	–	0	1	2	3	4	4	4	4	4	recombinant mouse HGF (R&D Systems) (ligand, UniProt Q08048 33-728, looked up, biotinylated at the N-terminus using NHS-LC-biotin in the competition ELISA only) QKKRRNTLHEFKKSAKTTLTKEDPLLKIKTKKVNSADECANRCIRNRGFTFTCKAFVFDKSRKRCYWYPFNSMSSGVKKGFGHEFDLYENKDYIRNCIIGKGGSYKGTVSITKSGIKCQPWNSMIPHEHSFLPSSYRGKDLQENYCRNPRGEEGGPWCFTSNPEVRYEVCDIPQCSEVECMTCNGESYRGPMDHTESGKTCQRWDQQTPHRHKFLPERYPDKGFDDNYCRNPDGKPRPWCYTLDPDTPWEYCAIKTCAHSAVNETDVPMETTECIQGQGEGYRGTSNTIWNGIPCQRWDSQYPHKHDITPENFKCKDLRENYCRNPDGAESPWCFTTDPNIRVGYCSQIPKCDVSSGQDCYRGNGKNYMGNLSKTRSGLTCSMWDKNMEDLHRHIFWEPDASKLNKNYCRNPDDDAHGPWCYTGNPLIPWDYCPISRCEGDTTPTIVNLDHPVISCAKTKQLRVVNGIPTQTTVGWMVSLKYRNKHICGGSLIKESWVLTARQCFPARNKDLKDYEAWLGIHDVHERGEEKRKQILNISQLVYGPEGSDLVLLKLARPAILDNFVSTIDLPSYGCTIPEKTTCSIYGWGYTGLINADGLLRVAHLYIMGNEKCSQHHQGKVTLNESELCAGAEKIGSGPCEGDYGGPLICEQHKMRMVLGVIVPGRGCAIPNRPGIFVRVAYYAKWIHKVILTYKL	5.35	58.6	–

More lines, now with the values behind:

Binder	cell scattering score, HPAF-II, 0.001 nM [1] [score 0-4]	cell scattering score, HPAF-II, 0.004 nM [1] [score 0-4]	cell scattering score, HPAF-II, 0.012 nM [1] [score 0-4]	cell scattering score, HPAF-II, 0.037 nM [1] [score 0-4]	cell scattering score, HPAF-II, 0.111 nM [1] [score 0-4]	cell scattering score, HPAF-II, 0.333 nM [1] [score 0-4]	cell scattering score, HPAF-II, 1.000 nM [1] [score 0-4]	cell scattering score, HPAF-II, 3.000 nM [1] [score 0-4]	cell scattering score, HPAF-II, 9.000 nM [1] [score 0-4]	cell scattering score, MLP29, 0.001 nM [2] [score 0-4]	cell scattering score, MLP29, 0.004 nM [2] [score 0-4]	cell scattering score, MLP29, 0.012 nM [2] [score 0-4]	cell scattering score, MLP29, 0.037 nM [2] [score 0-4]	cell scattering score, MLP29, 0.111 nM [2] [score 0-4]	cell scattering score, MLP29, 0.333 nM [2] [score 0-4]	cell scattering score, MLP29, 1.000 nM [2] [score 0-4]	cell scattering score, MLP29, 3.000 nM [2] [score 0-4]	cell scattering score, MLP29, 9.000 nM [2] [score 0-4]	protection from staurosporine, viability EC50, MLP29 [4] [nM]	protection from staurosporine, viability EMAX, MLP29 [4] [%]	also measured
chimeric llama-human IgG1 mAb 71G12 (antibody, V domains shown) VH: QVQLQESGGDLVQPGGSLRVSCVVSGFTFSRYYMSWVRQAPGKGLEWVSSIDSYGYSTYYTDSVKGRFTISRDNAKNTLYLQMNSLKPEDTALYYCARAKTTWSYDYWGQGTQVTVSS VL: EIVLTQSPSSVTASVGGKVTINCKSSQSVFIASNQKTYLNWYQQRPGQSPRLVISYASTRESGIPDRFSGSGSTTDFTLTISSVQPEDAAVYYCQQAYSHPTFGQGTKVELK	0	0	0	0	0	1	2	2	3	0	0	0	0	0	1	2	2	3	> 32	39.7	protection from staurosporine, viability EC50, MCF10A [3]: > 32 nM; protection from staurosporine, viability EMAX, MCF10A [3]: 39.4%; EMAX (% relative to control) [5]: 110%; EMAX (% relative to control) [6]: 121%; IMAX (maximum % competition) [7]: 51.4%; IMAX (maximum % competition) [8]: 50.7%
Fab 71G12 (Fab, V domains shown, llama Fab (VH-CH1, kappa VL-CL) with MYC flag, crude periplasmic extract) VH: QVQLQESGGDLVQPGGSLRVSCVVSGFTFSRYYMSWVRQAPGKGLEWVSSIDSYGYSTYYTDSVKGRFTISRDNAKNTLYLQMNSLKPEDTALYYCARAKTTWSYDYWGQGTQVTVSS VL: EIVLTQSPSSVTASVGGKVTINCKSSQSVFIASNQKTYLNWYQQRPGQSPRLVISYASTRESGIPDRFSGSGSTTDFTLTISSVQPEDAAVYYCQQAYSHPTFGQGTKVELK	–	–	–	–	–	–	–	–	–	–	–	–	–	–	–	–	–	–	–	–	ELISA OD450 [9]: 0.45 AU
chimeric llama-human IgG1 mAb 74C8 (antibody, V domains shown) VH: EVQLVESGGGLVQPGGSLRLSCAASGFTFRNYHMSWVRQVPGKGFEWISDINSAGGSTYYADSVKGRFTISRDNAKNTLYLEMNSLKPEDTALYYCARVNVWGVNYWGKGTLVSVSS VL: QTVVTQEPSLSVSPGGTVTLTCGLSSGSVTTSNYPGWFQQTPGQAPRTLIYNTNSRHSGVPSRFSGSISGNKAALTITGAQPEDEADYYCSLYPGSYTNVFGGGTHLTVL	0	0	0	1	2	3	3	4	4	0	0	0	1	2	3	3	4	4	> 32	37.5	protection from staurosporine, viability EC50, MCF10A [3]: > 32 nM; protection from staurosporine, viability EMAX, MCF10A [3]: 41.7%; EMAX (% relative to control) [5]: 85.7%; EMAX (% relative to control) [6]: 73.8%; IMAX (maximum % competition) [7]: 76.9%; IMAX (maximum % competition) [8]: 71.5%
